We go through 25 proteins from patent US20230303994.

B1: trypsin variant SEQ ID NO: 100 (protein)
chain: IVGGYTCAANSIPYQVSLNSGSHRCGGSLINSQWVVSAAHCYKPRIQVRLGEHNIDVLEGNEQFINAAKIITHPNFNPNTLDNDIMLIKLSSPATLNSHVATVSLPTSCAAAGTECLISGWGNTCSSGSSMPSLLQCLKAPVLSDSSCKSSYPGQITGNMICVGFLEGGADACQGDSGGPVVCNGQLQGIVSSGYGCAQKNKPGVYTKVCNYVNWIQQTIAAN
B2: trypsin variant SEQ ID NO: 102 (protein)
chain: B1 chain with D56H, C125S
B3: trypsin variant SEQ ID NO: 113 (protein)
chain: B1 chain with D56H, P78G, H99A, C125A, M131Y
B4: trypsin variant SEQ ID NO: 101 (protein)
chain: B1 chain with P44S, D56H, H99N, C125S
B5: trypsin variant SEQ ID NO: 18 (protein)
chain: B1 chain with P44S, P78G, H99R, T107R, C125S, M131Y, A170K
B6: trypsin variant SEQ ID NO: 118 (protein)
chain: B1 chain with D56H, P78G, C125A
B7: trypsin variant SEQ ID NO: 24 (protein)
chain: B1 chain with P44S, P78G, H99R, T107R, C125K, M131Y, A170Y
B8: trypsin variant SEQ ID NO: 109 (protein)
chain: B1 chain with P44S, D56H, P78G, H99N
B9: trypsin variant SEQ ID NO: 111 (protein)
chain: B1 chain with D56H, C125S, M131Y
B10: trypsin variant SEQ ID NO: 117 (protein)
chain: B1 chain with D56H, P78G, H99N, C125A, A170K
B11: trypsin variant SEQ ID NO: 107 (protein)
chain: B1 chain with D56H
B12: trypsin variant SEQ ID NO: 4 (protein)
chain: B1 chain with P44S, P78G, H99A, T107R, C125K, M131Y, A170K
B13: trypsin variant SEQ ID NO: 14 (protein)
chain: B1 chain with P44S, P78G, T107R, C125K, M131Y, A170K
B14: trypsin variant SEQ ID NO: 116 (protein)
chain: B1 chain with D56H, P78G, H99N, C125S
B15: trypsin variant SEQ ID NO: 103 (protein)
chain: B1 chain with D56H, C125S, A172S
B16: trypsin variant SEQ ID NO: 104 (protein)
chain: B1 chain with P44S, D56H, H99N
B17: trypsin variant SEQ ID NO: 110 (protein)
chain: B1 chain with P44S, D56H, T107R
B18: trypsin variant SEQ ID NO: 108 (protein)
chain: B1 chain with H99A
B19: porcine trypsin variant no. 105 (SEQ ID NO: 105) (protein)
chain: B1 chain with P44S, D56H, H99N, C125A, M131Y
B20: trypsin variant SEQ ID NO: 115 (protein)
chain: B1 chain with D56H, P78G, H99N, C125S, A170K
B21: trypsin variant SEQ ID NO: 19 (protein)
chain: B1 chain with P44S, P78G, H99R, T107R, M131Y, A170K
B22: trypsin variant SEQ ID NO: 25 (protein)
chain: B1 chain with P44S, P78G, H99R, T107R, C125K, M131Y
B23: trypsin variant SEQ ID NO: 119 (protein)
chain: B1 chain with D56H, P78G, H99A, C125A, A170K
B24: trypsin variant SEQ ID NO: 106 (protein)
chain: B1 chain with P44S, D56H, H99A
B25: trypsin variant SEQ ID NO: 36 (protein)
chain: B1 chain with P44S, P78G, H99R, T107R, C125K, A170K

Residue numbers refer to the chain shown, from its start.

The target in one series is pre-pro-human insulin.
As for B1, the “Activity PPI cleavage” value is recorded as “yes” and the Selectivity is on record as >90%.

As to B2, the “Activity PPI cleavage” value is “yes” and the Selectivity is >90%.

For B3, the “Activity PPI cleavage” value was “yes” and the Selectivity is >90%.

As for B4, the “Activity PPI cleavage” value was “yes” and the Selectivity is >90%.

For the protein B5, the “Activity PPI cleavage” value was “yes” and the Selectivity is recorded as >90%.

For B6, the “Activity PPI cleavage” value was “yes” and the Selectivity is >90%.

As for B7, the “Activity PPI cleavage” value is reported as “yes” and the Selectivity is given as >90%.

On to B8, for which the “Activity PPI cleavage” value is “yes” and the Selectivity is on record as >90%.

Take B9: the “Activity PPI cleavage” value was “yes” and the Selectivity was >80%.

In the case of B10, the “Activity PPI cleavage” value is on record as “yes” and the Selectivity is on record as >90%.

As for B11, the “Activity PPI cleavage” value is on record as “yes” and the Selectivity was >90%.

Turning to B12, the “Activity PPI cleavage” value is “yes” and the Selectivity is given as >90%.

Take B13: the “Activity PPI cleavage” value is “yes” and the Selectivity is >90%.

Regarding B14, the “Activity PPI cleavage” value was “yes” and the Selectivity is >90%.

For the protein B15, the “Activity PPI cleavage” value is “yes” and the Selectivity was >90%.

For B16, the “Activity PPI cleavage” value is “yes” and the Selectivity was >90%.

B17: the “Activity PPI cleavage” value is “yes” and the Selectivity is >90%.

Turning to B18, the “Activity PPI cleavage” value is reported as “yes” and the Selectivity is recorded as >80%.

With B19, the “Activity PPI cleavage” value is recorded as “yes” and the Selectivity is recorded as >90%.

For the protein B20, the “Activity PPI cleavage” value was “yes” and the Selectivity is given as >90%.

B21: the “Activity PPI cleavage” value is given as “yes” and the Selectivity was >90%.

As for B22, the “Activity PPI cleavage” value is “yes” and the Selectivity is recorded as >90%.

Consider B23, for which the “Activity PPI cleavage” value is “yes” and the Selectivity is reported as >90%.

For the protein B24, the “Activity PPI cleavage” value is recorded as “yes” and the Selectivity is listed as >90%.

Regarding B25, the “Activity PPI cleavage” value is recorded as “yes” and the Selectivity is given as >90%.

The target of another series is pre-pro-insulin glargine.
B1: the Purity Insulin Glargine was found to be 80 area %, the Yield was > 80%, the desArg came out at 0.7 area % and the desThr came to 0.3 area %.

For B2, the Purity Insulin Glargine came to 88.7 area %, the Yield is > 90%, the desArg was determined as 0.4 area % and the desThr was 1.2 area %.

Consider B3, for which the Purity Insulin Glargine was 86.1 area %, the Yield is > 90%, the desArg was 0.5 area % and the desThr came to 1.7 area %.

For B4, the Purity Insulin Glargine is 89.2 area %, the Yield is > 90%, the desArg was found to be 1 area % and the desThr worked out at 0.4 area %.

In the case of B5, the Purity Insulin Glargine was determined as 82.6 area %, the Yield was > 80%, the desArg was < 0.5 area % and the desThr turned out to be 1.9 area %.

Turning to B6, the Purity Insulin Glargine is 87.6 area %, the Yield was > 90%, the desArg turned out to be 0.6 area % and the desThr worked out at 1 area %.

As for B7, the Purity Insulin Glargine amounted to 82.3 area %, the Yield was > 80%, the desArg is < 0.5 area % and the desThr is 2.8 area %.

Turning to B8, the Purity Insulin Glargine was determined as 85.9 area %, the Yield is > 80%, the desArg was 0.7 area % and the desThr stood at 0.5 area %.

For B9, the Purity Insulin Glargine turned out to be 85.9 area %, the Yield is > 90%, the desArg amounted to 0.7 area % and the desThr came out at 2.6 area %.

For B10, the Purity Insulin Glargine is 85 area %, the Yield was > 90%, the desArg is 0.6 area % and the desThr came out at 0.8 area %.

Turning to B11, the Purity Insulin Glargine came out at 88.1 area %, the Yield was > 90%, the desArg was 0.4 area % and the desThr came out at 1.3 area %.

Take B12: the Purity Insulin Glargine is 86.4 area %, the Yield was > 90%, the desArg was < 0.5 area % and the desThr is 2.9 area %.

Regarding B13, the Purity Insulin Glargine was determined as 84.5 area %, the Yield was > 90%, the desArg was < 0.5 area % and the desThr stood at 2.4 area %.

B14: the Purity Insulin Glargine came out at 82.7 area %, the Yield was > 90%, the desArg was found to be 0.5 area % and the desThr came out at 0.6 area %.

Consider B15, for which the Purity Insulin Glargine was determined as 90.7 area %, the Yield is > 90%, the desArg worked out at 0.9 area % and the desThr was determined as 1.4 area %.

Regarding B16, the Purity Insulin Glargine turned out to be 89.3 area %, the Yield is > 90%, the desArg was 1.1 area % and the desThr stood at 1 area %.

In the case of B17, the Purity Insulin Glargine came out at 90.6 area %, the Yield is > 90%, the desArg worked out at 0.9 area % and the desThr was 0.6 area %.

Take B18: the Purity Insulin Glargine amounted to 88.8 area %, the Yield is > 90%, the desArg was determined as 0.8 area % and the desThr stood at 0.7 area %.

Consider B19, for which the Purity Insulin Glargine came out at 88.9 area %, the Yield is > 90%, the desArg was determined as 1 area % and the desThr turned out to be 0.9 area %.

For B20, the Purity Insulin Glargine was determined as 83.5 area %, the Yield was > 90%, the desArg turned out to be 0.8 area % and the desThr is 0.6 area %.

B21: the Purity Insulin Glargine was 81 area %, the Yield was > 80%, the desArg was < 0.5 area % and the desThr turned out to be 3.3 area %.

With B22, the Purity Insulin Glargine was 80.4 area %, the Yield was > 80%, the desArg is < 0.5 area % and the desThr stood at 2.8 area %.

As to B23, the Purity Insulin Glargine came to 85.2 area %, the Yield is > 90%, the desArg is 0.6 area % and the desThr was found to be 1 area %.

On to B24, for which the Purity Insulin Glargine is 86.8 area %, the Yield is > 90%, the desArg is 0.7 area % and the desThr amounted to 1 area %.

Consider B25, for which the Purity Insulin Glargine was determined as 87.6 area %, the Yield was > 90%, the desArg was < 0.5 area % and the desThr was determined as 1.5 area %.
